The data set has as its target Spen RRM2-4 RRM3 Mt ((SHARP named as human homolog for the pET28a constructs; gene listed as mouse NM_019763.2)) (UniProt Q96T58). The experiment in a line: fluorescence anisotropy. The conditions noted are these: pH 8.3; FA: 45 mM KCl, 5 mM NaCl, 50 mM Tris pH 7.5 (WT) or 8.3 (RRM3 Mt), 5% glycerol, RNA 1-3 nM, room temperature 40-60 min; competition EMSA: 50 mM Tris pH 7.5 ….
Sequence of UniProt Q96T58 (Q96T58 whole entry): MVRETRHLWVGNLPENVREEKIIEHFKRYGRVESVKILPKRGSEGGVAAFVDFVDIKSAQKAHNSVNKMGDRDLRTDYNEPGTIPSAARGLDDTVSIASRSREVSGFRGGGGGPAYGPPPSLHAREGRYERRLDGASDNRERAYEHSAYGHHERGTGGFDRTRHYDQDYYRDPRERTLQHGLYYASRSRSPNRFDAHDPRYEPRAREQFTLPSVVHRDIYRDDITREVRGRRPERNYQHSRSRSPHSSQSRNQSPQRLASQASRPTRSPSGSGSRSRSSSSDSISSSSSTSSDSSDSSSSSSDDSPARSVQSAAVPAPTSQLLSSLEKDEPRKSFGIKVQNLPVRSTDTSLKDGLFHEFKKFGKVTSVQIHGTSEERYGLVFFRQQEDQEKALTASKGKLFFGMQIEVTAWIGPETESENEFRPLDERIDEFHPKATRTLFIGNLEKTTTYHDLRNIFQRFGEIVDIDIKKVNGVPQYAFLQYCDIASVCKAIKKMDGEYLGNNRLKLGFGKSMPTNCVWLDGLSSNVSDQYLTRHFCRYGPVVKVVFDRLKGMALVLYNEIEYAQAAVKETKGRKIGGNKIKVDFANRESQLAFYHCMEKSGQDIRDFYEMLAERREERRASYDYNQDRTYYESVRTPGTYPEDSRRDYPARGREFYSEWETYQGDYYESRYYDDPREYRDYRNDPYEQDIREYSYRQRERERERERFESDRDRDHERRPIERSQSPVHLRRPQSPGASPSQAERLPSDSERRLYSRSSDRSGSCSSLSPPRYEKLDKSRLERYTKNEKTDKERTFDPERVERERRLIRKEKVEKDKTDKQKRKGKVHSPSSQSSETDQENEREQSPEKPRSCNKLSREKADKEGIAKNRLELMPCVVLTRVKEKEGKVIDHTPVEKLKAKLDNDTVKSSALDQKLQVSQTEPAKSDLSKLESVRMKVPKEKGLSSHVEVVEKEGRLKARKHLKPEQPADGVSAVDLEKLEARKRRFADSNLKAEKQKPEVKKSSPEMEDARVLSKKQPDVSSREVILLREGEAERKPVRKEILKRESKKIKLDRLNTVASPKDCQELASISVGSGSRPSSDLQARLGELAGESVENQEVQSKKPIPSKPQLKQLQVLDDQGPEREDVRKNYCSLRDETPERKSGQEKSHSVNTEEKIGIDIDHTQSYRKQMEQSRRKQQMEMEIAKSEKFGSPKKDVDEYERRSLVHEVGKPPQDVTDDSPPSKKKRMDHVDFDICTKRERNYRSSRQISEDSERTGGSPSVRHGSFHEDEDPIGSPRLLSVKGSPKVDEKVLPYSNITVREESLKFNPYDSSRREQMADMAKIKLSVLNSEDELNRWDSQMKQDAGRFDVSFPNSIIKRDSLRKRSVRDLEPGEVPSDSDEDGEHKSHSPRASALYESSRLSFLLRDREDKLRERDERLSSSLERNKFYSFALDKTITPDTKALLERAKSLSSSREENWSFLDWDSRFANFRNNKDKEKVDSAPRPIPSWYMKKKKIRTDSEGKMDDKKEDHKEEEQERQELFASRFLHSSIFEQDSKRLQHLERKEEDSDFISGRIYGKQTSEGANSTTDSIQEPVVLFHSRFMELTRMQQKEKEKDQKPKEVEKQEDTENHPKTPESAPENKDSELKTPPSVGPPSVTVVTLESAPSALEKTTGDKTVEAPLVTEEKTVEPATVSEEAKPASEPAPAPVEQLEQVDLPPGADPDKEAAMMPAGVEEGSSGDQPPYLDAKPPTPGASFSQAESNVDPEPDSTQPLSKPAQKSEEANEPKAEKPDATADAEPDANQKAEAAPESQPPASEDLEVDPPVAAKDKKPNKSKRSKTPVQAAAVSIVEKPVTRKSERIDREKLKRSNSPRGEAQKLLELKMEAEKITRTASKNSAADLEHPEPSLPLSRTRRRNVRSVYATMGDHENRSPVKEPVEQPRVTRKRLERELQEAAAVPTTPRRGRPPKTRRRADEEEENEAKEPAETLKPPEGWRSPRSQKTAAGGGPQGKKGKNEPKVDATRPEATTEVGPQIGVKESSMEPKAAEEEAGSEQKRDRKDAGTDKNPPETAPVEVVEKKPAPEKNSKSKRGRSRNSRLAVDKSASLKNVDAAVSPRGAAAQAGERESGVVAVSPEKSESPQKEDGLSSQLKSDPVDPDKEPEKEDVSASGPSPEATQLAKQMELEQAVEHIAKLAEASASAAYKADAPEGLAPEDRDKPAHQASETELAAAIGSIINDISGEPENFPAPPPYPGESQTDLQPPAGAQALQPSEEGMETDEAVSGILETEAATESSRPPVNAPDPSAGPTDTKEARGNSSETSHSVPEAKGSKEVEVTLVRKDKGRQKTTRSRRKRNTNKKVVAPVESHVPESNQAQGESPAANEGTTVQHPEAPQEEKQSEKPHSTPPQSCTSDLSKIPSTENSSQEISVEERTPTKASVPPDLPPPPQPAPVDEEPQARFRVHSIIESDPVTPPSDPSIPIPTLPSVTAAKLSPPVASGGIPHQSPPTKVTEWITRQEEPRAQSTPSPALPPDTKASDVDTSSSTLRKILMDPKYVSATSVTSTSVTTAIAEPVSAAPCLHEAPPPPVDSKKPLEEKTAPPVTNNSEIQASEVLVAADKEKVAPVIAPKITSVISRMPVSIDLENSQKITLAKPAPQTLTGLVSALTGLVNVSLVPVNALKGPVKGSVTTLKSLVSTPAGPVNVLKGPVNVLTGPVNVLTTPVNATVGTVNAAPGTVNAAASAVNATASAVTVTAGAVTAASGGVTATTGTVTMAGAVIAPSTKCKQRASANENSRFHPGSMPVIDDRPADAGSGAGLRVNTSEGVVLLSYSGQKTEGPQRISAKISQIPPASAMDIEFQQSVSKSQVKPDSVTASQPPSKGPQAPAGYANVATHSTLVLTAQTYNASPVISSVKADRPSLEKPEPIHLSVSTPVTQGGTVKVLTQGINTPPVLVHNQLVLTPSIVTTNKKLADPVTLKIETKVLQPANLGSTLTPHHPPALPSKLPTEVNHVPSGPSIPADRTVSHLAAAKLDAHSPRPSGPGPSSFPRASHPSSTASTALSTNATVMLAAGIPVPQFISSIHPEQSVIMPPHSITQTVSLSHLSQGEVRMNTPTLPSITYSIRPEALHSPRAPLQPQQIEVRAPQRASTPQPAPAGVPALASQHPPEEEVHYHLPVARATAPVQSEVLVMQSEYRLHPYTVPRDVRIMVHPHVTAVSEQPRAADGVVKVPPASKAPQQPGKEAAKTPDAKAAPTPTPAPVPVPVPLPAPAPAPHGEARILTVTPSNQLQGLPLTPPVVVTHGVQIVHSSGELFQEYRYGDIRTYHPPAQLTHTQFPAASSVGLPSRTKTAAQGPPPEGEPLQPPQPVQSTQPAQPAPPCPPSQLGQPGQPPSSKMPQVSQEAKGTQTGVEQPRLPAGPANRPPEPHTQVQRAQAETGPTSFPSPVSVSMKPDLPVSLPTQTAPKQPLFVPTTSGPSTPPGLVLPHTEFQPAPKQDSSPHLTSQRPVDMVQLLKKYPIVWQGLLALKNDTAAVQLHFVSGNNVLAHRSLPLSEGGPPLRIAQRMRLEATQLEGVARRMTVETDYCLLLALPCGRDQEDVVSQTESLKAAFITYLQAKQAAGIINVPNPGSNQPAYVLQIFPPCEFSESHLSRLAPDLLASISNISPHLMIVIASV

“GAAAUUUCUCUCUGGGCCUUAUAGCAGGAGUACUCUGUUCCCUUUUGUGUCUUGUCUAAUGUCCGGUGCACCAAUCUGUUCUCGUGUUCAAUUCAUGUAUGUUCGUGUCCAGU [ERV 495 (113 nt)]” returned a binding signal (affinity relative to RRM2-4) of 0.5.
With “GAUCAGAGUAACUGUCUUGGCUACAUUCUUUUCUCUCGCCACCUAGCCCCUCUUCUCUUCCAGGUUUCCAAAAUGCCUUUCCAGGCUAGAACCCAGGUUGUGGUCUGCUGG [ERV 302 (111 nt)]” the figure was 0.5.
For “GAUUCCAGGCAGAACUGUUGAGCAUAGAUAAUUUUCCCCCCUCAGGCCAGCUUUUUCUUUUUUUAAAUUUUGUUAAUAAAAGGGAG [ERV 205 (86 nt)]” the value was 0.5; for “GGAACUCGUUCCUUCUCCUUAGCCCAUCGGGGCCAUGGAUACCUGCUUUUAACCUUUCUCGGUCCAUCGGGACCUCGGAUACCUG [Xist A-repeat (85 nt)]”, 0.5.
For “GGUACCUUAAAUCCUUGCUCUCACCCAAAAGAUUCAGAGACAAUAUCCUUUUAUUACUUAGGGUUUUAGUUUACUACAAAAGUUUCUACAAAAAAUAAAGCUUUUAUAA [ERV 411 (109 nt)]” the value was 0.5; for “GGUUAAAACUGCUAUUGUUCCAUUGACUGCAGCUUGCAGUUUGAUUUCAAAUUUAAGAUCUUUAAUUCACCUGUAUACUGUAAUUAAGAUAAUUACAAGAGUAAUCAUCUUAUG [ERV 509 (114 nt)]”, 0.5.

For the origin of these results see PMC7282817.
